Numbering of substitutions follows the chain as printed. Names and notes keep the numbering of the source.
Assays:
[1] = molecular target: T1, human GITR on HEK cells (HEK-GITR) (human, UniProt Q9Y5U5 26-241); experiment: flow cytometry, HEK-GITR
T1 construct: also called cell surface expressed human GITR
T1 sequence: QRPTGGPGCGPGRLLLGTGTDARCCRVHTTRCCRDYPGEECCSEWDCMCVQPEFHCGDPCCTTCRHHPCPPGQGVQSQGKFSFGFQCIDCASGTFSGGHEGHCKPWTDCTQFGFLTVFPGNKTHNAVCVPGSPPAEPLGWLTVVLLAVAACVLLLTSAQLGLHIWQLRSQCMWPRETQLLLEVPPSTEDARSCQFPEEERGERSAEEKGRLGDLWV
Description: Cells were washed twice with complete media and once with PBS+2% FBS before adjusting cell density to 1×10⁷ cells/mL in PBS+2% FBS.
Plates were centrifuged at 4° C., 3 minutes at 600×g and supernatant was flicked off. Cells were resuspended in 50 μL/well of 4° C. cold PBS+2% FBS containing titrated anti-GITR antibody constructs for 120 minutes at 4° C. Plates were washed twice with 200 μL/well 4° C. PBS+2% FBS to remove unbound construct. […] Plates were centrifuged at 4° C. for 3 minutes at 600×g and washed twice with PBS+2% FBS. […] Plates were centrifuged at 4° C., 3 minutes at 600×g and supernatant was flicked off.

[2] = molecular target: T2, murine FAP (His-tagged ectodomain) (mouse, UniProt P97321 27-761); experiment: SPR, FAP captured via anti-His, 1:1 fit, apparent KD (bivalent)
T2 construct: also called mu FAP
Description: The capacity of the bispecific constructs to bind human, murine and cynomolgus FAP was assessed by surface plasmon resonance (SPR). All SPR experiments were performed on a Biacore T200 (Biacore) at 25° C. with HBS-EP as running buffer (0.01 M HEPES pH 7.4, 0.15 M NaCl, 3 mM EDTA, 0.005% Surfactant P20, (Biacore).
Immobilization levels for the anti-His antibody of up to 18000 resonance units (RU) were used.
Following the capture step, the bispecific constructs as well as control molecules were immediately passed over the chip surface at a concentration ranging from 0.006-100 nM with a flow rate of 30 μL/minute for 280 s and a dissociation phase of 180 s. Bulk refractive index differences were corrected for by subtracting the response obtained in a reference flow cell, where no FAP was immobilized. Affinity was determined using the Langmuir 1:1 curve fitting. For bivalent binding the same 1:1 fitting was used leading to an apparent KD value.

[3] = molecular target: T3, human fibroblast activation protein (huFAP) on cells (human, UniProt Q12884 1-760); experiment: flow cytometry, WM266-4
T3 construct: also called NIH/3T3-huFAP clone 39; NIH/3T3-huFAP clone 19

human 4-1BB on cells [4] = molecular target: T4, human 4-1BB on cells (human, UniProt Q07011 24-255); experiment: cell-based or functional assay
human OX40 on cells = molecular target: T5, human OX40 on cells (human, UniProt P43489 29-277); experiment: flow cytometry, activated human CD4 T cells
T5 sequence: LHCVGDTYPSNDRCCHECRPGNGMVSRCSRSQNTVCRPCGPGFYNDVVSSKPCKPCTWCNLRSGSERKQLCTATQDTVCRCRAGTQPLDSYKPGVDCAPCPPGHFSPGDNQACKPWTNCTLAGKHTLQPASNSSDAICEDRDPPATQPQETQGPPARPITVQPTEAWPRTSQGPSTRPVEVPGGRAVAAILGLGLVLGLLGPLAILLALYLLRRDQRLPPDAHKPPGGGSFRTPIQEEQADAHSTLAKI

[5] = molecular target: T6, cynomolgus 4-1BB on activated cynomolgus PBMC (cynomolgus, UniProt Q07011 24-255 (human entry)); experiment: flow cytometry, activated cynomolgus CD4 T cells
T6 chain: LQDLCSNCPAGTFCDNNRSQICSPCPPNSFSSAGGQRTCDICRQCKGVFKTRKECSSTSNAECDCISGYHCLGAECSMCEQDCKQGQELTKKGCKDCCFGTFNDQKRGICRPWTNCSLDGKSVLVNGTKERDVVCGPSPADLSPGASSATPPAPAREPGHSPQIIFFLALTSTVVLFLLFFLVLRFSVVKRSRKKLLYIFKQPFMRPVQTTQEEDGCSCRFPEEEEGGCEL
Description: (§1) Cells were washed twice with FACS buffer and resuspended in 100 μL/well FACS buffer supplied with 0.2 μg/mL DAPI to discriminated dead from living cells. Cells were immediately acquired using a 5-laser Fortessa (BD Bioscience with DIVA software). Gates were set on CD8⁺ and CD4⁺ T cells and the median fluorescence intensity (MFI) of the secondary detection antibody was used to analyze binding of primary antibodies. Using Graph Pad Prism (Graph Pad Software Inc.) data was baselined by subtracting the blank values (no primary antibody added) and the EC₅₀ values were calculated using non-linear regression curve fit (robust fit).

[6] = molecular target: recombinant cynomolgus 4-1BB Fc(kih) (cynomolgus, UniProt P0DOX5 223-449 = IgG part, biotin on C-terminal Avi tag where used biotinylated); experiment: SPR, captured IgG, cyno 4-1BB Fc(kih) analyte
Description: (§2) All SPR experiments were performed on a Biacore T200 at 25° C. with HBS-EP as running buffer (0.01 M HEPES pH 7.4, 0.15 M NaCl, 3 mM EDTA, 0.005% Surfactant P20, Biacore, Freiburg/Germany).
Anti-human Fab antibody (Biacore, Freiburg/Germany) was directly coupled on a CM5 chip at pH 5.0 using the standard amine coupling kit (Biacore, Freiburg/Germany). The immobilization level was approximately 9000 RU.

[7] = molecular target: T7, recombinant human 4-1BB Fc(kih) (human, UniProt P0DOX5 223-449 = IgG part, biotin on C-terminal Avi tag where used biotinylated); experiment: SPR, captured IgG, 4-1BB Fc(kih) analyte
T7 construct: also called hu4-1BB; biotinylated human 4-1BB
Description: as §2
Anti-human Fab antibody (Biacore, Freiburg/Germany) was directly coupled on a CM5 chip at pH 5.0 using the standard amine coupling kit (Biacore, Freiburg/Germany). The immobilization level was approximately 7500 RU. […] The dissociation was monitored for 120 seconds. Bulk refractive index differences were corrected for by subtracting the response obtained on reference flow cell.

human 4-1BB on cells [8] = molecular target: T4, human 4-1BB on cells; experiment: flow cytometry, activated human CD8 T cells
Description: Plates were centrifuged 4 minutes with 400×g at 4° C. and supernatant was discarded. […] Afterwards cells were washed once with 200 μL/well cold FACS buffer (DPBS supplied with 2% (v/v) FBS, 5 mM EDTA pH8 (Amresco, Cat. No. E177) and 7.5 mM sodium azide (Sigma-Aldrich S2002)). […] Cells were washed four times with 200 μL/well 4° C.
Cells were washed twice with 200 μL FACS buffer/well and fixated by resuspending in 50 μL/well DPBS containing 1% Formaldehyde (Sigma, HT501320-9.5L). Cells were acquired the same or next day using a 3-laser Canto II (BD Bioscience with DIVA software) or a 5-laser Fortessa (BD Bioscience with DIVA software) or 3-laser MACSQuant Analyzer 10 (Miltenyi Biotech). Gates were set on CD8⁺ and CD4⁺ T cells and the median fluorescence intensity (MFI) or geo mean of fluorescence intensity of the secondary detection antibody was used to analyze binding of primary antibodies. Using Graph Pad Prism (Graph Pad Software Inc.) data was baselined by subtracting the blank values (no primary antibody added) and the EC50 values were calculated using non-linear regression curve fit (robust fit).

human 4-1BB on cells [9] = molecular target: T4, human 4-1BB on cells; experiment: cell-based or functional assay; remark: listed apart in the source
[10] = molecular target: T6, cynomolgus 4-1BB on activated …; experiment: flow cytometry, activated cynomolgus CD8 T cells
Description: as §1

[11] = molecular target: T8, mouse 4-1BB on activated mouse splenocytes (mouse, UniProt P20334 24-256); experiment: flow cytometry, activated mouse T cells
T8 sequence (P20334 24-256 limits assumed): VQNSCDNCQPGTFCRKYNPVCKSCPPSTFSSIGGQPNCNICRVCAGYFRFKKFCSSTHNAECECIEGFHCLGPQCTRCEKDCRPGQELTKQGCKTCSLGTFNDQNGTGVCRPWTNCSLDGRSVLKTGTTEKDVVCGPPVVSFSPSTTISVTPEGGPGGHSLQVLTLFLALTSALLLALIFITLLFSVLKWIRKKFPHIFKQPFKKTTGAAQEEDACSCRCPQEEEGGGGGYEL
Description: (§3) Cells were incubated for 30 min at 4° C., washed twice with 200 μL/well FACS-buffer and resuspended for fixation with 50 μL/well DPBS containing 1% (v/v) formaldehyde. The next day cells were resuspended in 200 μL/well FACS buffer and acquired using the 2-laser Cantoll (BD Bioscience with DIVA software) or 5-laser Fortessa (BD Bioscience with DIVA software). Gates were set on CD8⁺ and CD4⁺ T cells and the median fluorescence intensity (MFI) of the secondary detection antibody was used to analyze binding of primary antibodies. Using Graph Pad Prism (Graph Pad Software Inc.) data was baselined by subtracting the blank values (no primary antibody added) and the EC₅₀ values were calculated using non-linear regression curve fit (robust fit).

[12] = molecular target: T8, mouse 4-1BB on activated mouse …; experiment: flow cytometry, activated murine CD8 T cells
Description: as §3

[13] = molecular target: T8, mouse 4-1BB on activated mouse …; experiment: flow cytometry, activated murine CD4 T cells
Description: as §3

B1: (GITR-DP47) [8A06] 4+1 construct with charged residues (bispecific antibody, V domains shown)
VH: QVQLVQSGAEVKKPGSSVKVSCKASGGTFSSYAISWVRQAPGQGLEWMGGIIPIFGTANYAQKFQGRVTITADKSTSTAYMELSSLRSEDTAVYYCARGYYAIDYWGQGTTVTVSS
VL: SSELTQDPAVSVALGQTVRITCQGDSLRSYYASWYQQKPGQAPVLVIYGKNNRPSGIPDRFSGSSSGNTASLTITGAQAEDEADYYCNSPQTSGSAVFGGGTKLTVL
- EC50 [1]: 1.92 nM

B2: (GITR-FAP) [8A06] 4+2 construct with charged residues (bispecific antibody, V domains shown)
VH 1: B1 VH
VL 1: B1 VL
VH 2: EVQLLESGGGLVQPGGSLRLSCAASGFTFSSHAMSWVRQAPGKGLEWVSAIWASGEQYYADSVKGRFTISRDNSKNTLYLQMNSLRAEDTAVYYCAKGWLGNFDYWGQGTLVTVSS
VL 2: EIVLTQSPGTLSLSPGERATLSCRASQSVSRSYLAWYQQKPGQAPRLLIIGASTRATGIPDRFSGSGSGTDFTLTISRLEPEDFAVYYCQQGQVIPPTFGQGTKVEIK
notes: human IgG1 P329G LALA; also called 4+2 CR
- EC50 [1]: 2.06 nM

B3: OX40(49B4)/FAP(28H1) P329GLALA IgG1 4+2 (bispecific antibody)
heavy: not shown
light 1: DIQMTQSPSTLSASVGDRVTITCRASQSISSWLAWYQQKPGKAPKLLIYDASSLESGVPSRFSGSGSGTEFTLTISSLQPDDFATYYCQQYSSQPYTFGQGTKVEIKRTVAAPSVFIFPPSDRKLKSGTASVVCLLNNFYPREAKVQWKVDNALQSGNSQESVTEQDSKDSTYSLSSTLTLSKADYEKHKVYACEVTHQGLSSPVTKSFNRGEC
light 2: EVQLLESGGGLVQPGGSLRLSCAASGFTFSSHAMSWVRQAPGKGLEWVSAIWASGEQYYADSVKGRFTISRDNSKNTLYLQMNSLRAEDTAVYYCAKGWLGNFDYWGQGTLVTVSSASVAAPSVFIFPPSDEQLKSGTASVVCLLNNFYPREAKVQWKVDNALQSGNSQESVTEQDSKDSTYSLSSTLTLSKADYEKHKVYACEVTHQGLSSPVTKSFNRGEC
notes: also called 4+2 (49B4/28H1)
- Kd [2]: 0.00441 nM
- EC50 [3]: 5.51 nM

B4: 25G7/FAP P329GLALA IgG1 1+1 (bispecific antibody)
heavy 1: not shown
light 1: SSELTQDPAVSVALGQTVRITCQGDSLRSYYASWYQQKPGQAPVLVIYGKNNRPSGIPDRFSGSSSGNTASLTITGAQAEDEADYYCNSLDRRGMWVFGGGTKLTVLGQPKAAPSVTLFPPSSEELQANKATLVCLISDFYPGAVTVAWKADSSPVKAGVETTTPSKQSNNKYAASSYLSLTPEQWKSHRSYSCQVTHEGSTVEKTVAPTECS
heavy 2: EVQLLESGGGLVQPGGSLRLSCAASGFTFSSHAMSWVRQAPGKGLEWVSAIWASGEQYYADSVKGRFTISRDNSKNTLYLQMNSLRAEDTAVYYCAKGWLGNFDYWGQGTLVTVSSASVAAPSVFIFPPSDEQLKSGTASVVCLLNNFYPREAKVQWKVDNALQSGNSQESVTEQDSKDSTYSLSSTLTLSKADYEKHKVYACEVTHQGLSSPVTKSFNRGECDKTHTCPPCPAPEAAGGPSVFLFPPKPKDTLMISRTPEVTCVVVDVSHEDPEVKFNWYVDGVEVHNAKTKPREEQYNSTYRVVSVLTVLHQDWLNGKEYKCKVSNKALGAPIEKTISKAKGQPREPQVCTLPPSRDELTKNQVSLSCAVKGFYPSDIAVEWESNGQPENNYKTTPPVLDSDGSFFLVSKLTVDKSRWQQGNVFSCSVMHEALHNHYTQKSLSLSPGK
light 2: EIVLTQSPGTLSLSPGERATLSCRASQSVSRSYLAWYQQKPGQAPRLLIIGASTRATGIPDRFSGSGSGTDFTLTISRLEPEDFAVYYCQQGQVIPPTFGQGTKVEIKSSASTKGPSVFPLAPSSKSTSGGTAALGCLVKDYFPEPVTVSWNSGALTSGVHTFPAVLQSSGLYSLSSVVTVPSSSLGTQTYICNVNHKPSNTKVDKKVEPKSCD
- EC50 of NFκB/luciferase activation, 4-1BB reporter HeLa with NIH/3T3-huFAP clone 19 (human 4-1BB on cells [4]): 3.2 nM

B5: 4-1BB(25G7)/FAP(4B9) 4+1 (bispecific antibody, human IgG1, lambda, L234A L235A)
heavy 1: not shown
heavy 2: not shown
light: B4 light 1
- EC50 of NFκB/luciferase activation, 4-1BB reporter HeLa with NIH/3T3-huFAP clone 19 (human 4-1BB on cells [4]): 0.04 nM
- EC50 of NFκB/luciferase activation, 4-1BB reporter HeLa with WM-266-4 (human 4-1BB on cells [4]): 0.2 nM

B6: 11D5/FAP P329GLALA IgG1 2+2 (bispecific antibody)
heavy: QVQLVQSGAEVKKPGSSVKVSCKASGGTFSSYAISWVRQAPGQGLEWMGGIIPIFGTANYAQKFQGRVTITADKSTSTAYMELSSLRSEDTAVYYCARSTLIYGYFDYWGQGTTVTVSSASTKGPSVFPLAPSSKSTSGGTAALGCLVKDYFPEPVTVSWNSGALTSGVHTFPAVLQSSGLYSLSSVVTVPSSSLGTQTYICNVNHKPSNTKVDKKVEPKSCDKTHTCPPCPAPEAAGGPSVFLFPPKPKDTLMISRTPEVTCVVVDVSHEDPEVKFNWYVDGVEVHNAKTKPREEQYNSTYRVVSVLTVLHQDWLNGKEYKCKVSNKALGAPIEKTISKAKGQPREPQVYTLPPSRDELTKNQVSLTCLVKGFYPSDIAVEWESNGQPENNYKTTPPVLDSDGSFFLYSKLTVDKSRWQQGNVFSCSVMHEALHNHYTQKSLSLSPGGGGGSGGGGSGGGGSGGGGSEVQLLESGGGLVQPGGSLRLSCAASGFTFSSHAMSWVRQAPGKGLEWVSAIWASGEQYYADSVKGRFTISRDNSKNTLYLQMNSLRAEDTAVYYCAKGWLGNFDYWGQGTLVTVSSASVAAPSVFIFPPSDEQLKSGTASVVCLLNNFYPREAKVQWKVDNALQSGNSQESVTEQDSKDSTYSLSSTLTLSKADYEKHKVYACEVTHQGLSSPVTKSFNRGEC
light 1: not shown
light 2: B4 light 2
- EC50 of NFκB/luciferase activation, 4-1BB reporter HeLa with NIH/3T3-huFAP clone 19 (human 4-1BB on cells [4]): 0.05 nM

B7: 49B4/FAP P329GLALA IgG1 2+2 (bispecific antibody)
heavy: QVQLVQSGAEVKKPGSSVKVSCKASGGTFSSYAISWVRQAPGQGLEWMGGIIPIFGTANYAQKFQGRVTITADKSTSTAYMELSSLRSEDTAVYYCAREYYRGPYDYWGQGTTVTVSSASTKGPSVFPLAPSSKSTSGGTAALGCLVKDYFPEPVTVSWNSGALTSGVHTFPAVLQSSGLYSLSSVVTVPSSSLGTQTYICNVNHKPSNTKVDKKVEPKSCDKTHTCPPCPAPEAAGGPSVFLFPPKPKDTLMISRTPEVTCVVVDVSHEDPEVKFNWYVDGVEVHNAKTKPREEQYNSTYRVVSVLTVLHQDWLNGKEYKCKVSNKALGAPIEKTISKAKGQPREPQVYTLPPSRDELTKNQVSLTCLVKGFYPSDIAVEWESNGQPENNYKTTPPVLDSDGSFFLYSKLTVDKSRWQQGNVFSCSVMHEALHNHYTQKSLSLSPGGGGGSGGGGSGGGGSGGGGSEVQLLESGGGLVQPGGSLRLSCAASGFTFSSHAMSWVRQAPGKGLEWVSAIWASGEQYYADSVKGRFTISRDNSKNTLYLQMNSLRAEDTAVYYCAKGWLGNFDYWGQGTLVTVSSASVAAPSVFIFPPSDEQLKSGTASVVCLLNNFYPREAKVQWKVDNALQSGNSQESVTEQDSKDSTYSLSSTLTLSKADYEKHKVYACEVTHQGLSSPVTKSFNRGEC
light 1: B3 light 1 with R123E, K124Q
light 2: B4 light 2
notes: also called 2+2 (49B4/28H1); bispecific bivalent 2+2 construct 49B4
- EC50 [3]: 1.31 nM

B8: 25G7/FAP P329GLALA IgG1 2+2 (bispecific antibody)
heavy: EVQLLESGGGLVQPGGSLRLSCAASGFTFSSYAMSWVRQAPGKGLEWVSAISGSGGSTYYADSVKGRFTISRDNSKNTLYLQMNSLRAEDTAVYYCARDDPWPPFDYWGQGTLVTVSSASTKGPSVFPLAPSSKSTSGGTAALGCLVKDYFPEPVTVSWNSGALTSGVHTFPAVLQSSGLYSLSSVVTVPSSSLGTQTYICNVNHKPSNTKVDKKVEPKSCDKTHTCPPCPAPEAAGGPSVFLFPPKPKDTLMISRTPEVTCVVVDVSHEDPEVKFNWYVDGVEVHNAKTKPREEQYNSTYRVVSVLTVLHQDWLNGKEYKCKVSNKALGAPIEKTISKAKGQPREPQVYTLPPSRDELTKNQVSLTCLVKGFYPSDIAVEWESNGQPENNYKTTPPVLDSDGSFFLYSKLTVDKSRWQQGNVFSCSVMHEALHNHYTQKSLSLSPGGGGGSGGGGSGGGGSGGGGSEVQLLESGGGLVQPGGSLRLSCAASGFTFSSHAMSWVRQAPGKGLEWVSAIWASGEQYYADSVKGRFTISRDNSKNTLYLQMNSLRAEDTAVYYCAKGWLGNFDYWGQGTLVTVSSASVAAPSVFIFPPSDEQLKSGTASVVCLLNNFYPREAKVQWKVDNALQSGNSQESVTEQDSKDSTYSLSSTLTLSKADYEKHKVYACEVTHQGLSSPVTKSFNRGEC
light 1: B4 light 1
light 2: B4 light 2
- EC50 of NFκB/luciferase activation, 4-1BB reporter HeLa with NIH/3T3-huFAP clone 19 (human 4-1BB on cells [4]): 0.05 nM

B9: 4-1BB(25G7)/FAP(4B9) 2+1 (bispecific antibody, human IgG1, lambda, L234A L235A)
heavy 1: not shown
heavy 2: not shown
light: B4 light 1
- EC50 of NFκB/luciferase activation, 4-1BB reporter HeLa with NIH/3T3-huFAP clone 19 (human 4-1BB on cells [4]): 0.1 nM
- EC50 of NFκB/luciferase activation, 4-1BB reporter HeLa with WM-266-4 (human 4-1BB on cells [4]): 0.3 nM

B10: 1G4/FAP P329GLALA IgG1 2+2 (bispecific antibody)
heavy: not shown
light 1: not shown
light 2: B4 light 2
notes: also called 1G4 FAP 2+2
- EC50 (human OX40 on cells): 9.37 nM

B11: 11D5 P329GLALA IgG1 (antibody, V domains shown)
VH: QVQLVQSGAEVKKPGSSVKVSCKASGGTFSSYAISWVRQAPGQGLEWMGGIIPIFGTANYAQKFQGRVTITADKSTSTAYMELSSLRSEDTAVYYCARSTLIYGYFDYWGQGTTVTVSS
VL: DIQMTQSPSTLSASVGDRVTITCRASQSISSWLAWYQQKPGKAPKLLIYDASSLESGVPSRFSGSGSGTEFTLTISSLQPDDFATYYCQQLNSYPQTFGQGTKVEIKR
notes: anti-4-1BB; also called 11D5 IgG
- EC50 [5]: 0.97 nM
- Kd [6]: 24 nM
- koff [6]: 0.00077 s⁻¹
- kon [6]: 31000 M⁻¹ s⁻¹
- Kd [7]: 36 nM
- koff [7]: 0.0012 s⁻¹
- kon [7]: 32000 M⁻¹ s⁻¹
- EC50 (human 4-1BB on cells [8]): 1.46 nM
- EC50 of increase of IFNγ secretion in activated CD8+ T cells (surface-immobilized IgG) (human 4-1BB on cells [9]): 0.06 nM
- EC50 [10]: 1.04 nM
- binding result [11]: no binding

B12: 25G7 P329GLALA IgG1 (antibody, V domains shown)
VH: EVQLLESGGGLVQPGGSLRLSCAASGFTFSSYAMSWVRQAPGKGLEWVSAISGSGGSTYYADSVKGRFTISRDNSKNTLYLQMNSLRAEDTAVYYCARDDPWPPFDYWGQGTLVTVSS
VL: SSELTQDPAVSVALGQTVRITCQGDSLRSYYASWYQQKPGQAPVLVIYGKNNRPSGIPDRFSGSSSGNTASLTITGAQAEDEADYYCNSLDRRGMWVFGGGTKLTVLG
notes: anti-4-1BB; also called 25G7 IgG
- EC50 [5]: 6.68 nM
- Kd [6]: 17 nM
- koff [6]: 0.00046 s⁻¹
- kon [6]: 27000 M⁻¹ s⁻¹
- Kd [7]: 34 nM
- koff [7]: 0.00099 s⁻¹
- kon [7]: 29000 M⁻¹ s⁻¹
- EC50 (human 4-1BB on cells [8]): 29 nM
- EC50 of increase of IFNγ secretion in activated CD8+ T cells (surface-immobilized IgG) (human 4-1BB on cells [9]): 0.12 nM
- EC50 [10]: 4.52 nM
- binding result [11]: no binding

B13: 20G2 mu IgG1 κ DAPG (antibody, V domains shown)
VH: QVQLVQSGAEVKKPGSSVKVSCKASGGTFSSYAISWVRQAPGQGLEWMGGIIPIFGTANYAQKFQGRVTITADKSTSTAYMELSSLRSEDTAVYYCARSYYWESYPFDYWGQGTTVTVSS
VL: DIQMTQSPSTLSASVGDRVTITCRASQSISSWLAWYQQKPGKAPKLLIYDASSLESGVPSRFSGSGSGTEFTLTISSLQPDDFATYYCQQQHSYYTFGQGTKVEIK
notes: mouse IgG1 kappa with DAPG mutations; also called 20G2 mouse IgG1 DAPG
- EC50 [12]: 17.9 nM
- EC50 [13]: 11.2 nM

B14: 20G2 mu IgG1 κ wt (antibody, V domains shown)
VH: B13 VH
VL: B13 VL
notes: mouse IgG1 kappa wild type; also called 20G2 mouse IgG1 wildtype
- EC50 [12]: 18.5 nM
- EC50 [13]: 9.92 nM
